According to patent publication US20070065878A1:
Values joined by “and” are separate entries in the source; they are usually repeats but may differ in a detail not shown here. Identical values can stand only once.

Tests used:
[1] = test system: T1, Canonical (enteropeptidase substrate)
T1 sequence: DDDDKGGQS

[2] = test system: T2, CyPet-YPet substrate with recognition sequence SGDRMW (EP4.3)
T2 sequence: SGDRMWHHHHHH

[3] = test system: T3, Dabcyl-SGDRMW(E-Edans)-amide
T3 sequence: SGDRMW

EP 2.2 = test system: T4, EP 2.2
T4 sequence: AAVERWGGS

EP 2.5 = test system: T5, EP 2.5
T5 sequence: MSGERMGGS

EP 3.6 = test system: T6, EP 3.6
T6 sequence: GSSDRARVW

EP 4.10 = test system: T7, EP 4.10
T7 sequence: GSSERAAAG

EP 4.1 = test system: T8, EP 4.1
T8 sequence: SVDYRFLGS

EP 4.2 = test system: T9, EP 4.2
T9 sequence: MHGERMGGS

EP 4.3 = test system: T10, EP 4.3
T10 sequence: SSGDRMWGG

EP 4.4 = test system: T11, EP 4.4
T11 sequence: SEYDRQLGS

EP 4.6 = test system: T12, EP 4.6
T12 sequence: SSGERMMGG

EP 4.7 = test system: T13, EP 4.7
T13 sequence: GSDDRRAGG

EP 4.8 = test system: T14, EP 4.8
T14 sequence: VRDYRMGGQ

EP 4.9 = test system: T15, EP 4.9
T15 sequence: SVLDRWMGG

[4] = test system: T16, negative control displaying the sequence GGQSGQ
T16 sequence: GGQSGQ

[5] = test system: T17, MPLVM (MMP substrate, 5X library)
T17 sequence: MPLVM

[6] = test system: T18, MPVVL (MMP substrate, 5X library)
T18 sequence: MPVVL

[7] = test system: T19, PMAVI (MMP substrate, 5X library)
T19 sequence: PMAVI

[8] = test system: T20, PMAVT (MMP substrate, 5X library)
T20 sequence: PMAVT

[9] = test system: T21, PVAMR (MMP substrate, 5X library)
T21 sequence: PVAMR

[10] = test system: T22, PVNVV (MMP substrate, 5X library)
T22 sequence: PVNVV

[11] = test system: T23, PVPMV (MMP substrate, 5X library)
T23 sequence: PVPMV

[12] = test system: T24, TPLAL (MMP substrate, 5X library)
T24 sequence: TPLAL

[13] = test system: T25, VPLNM (MMP substrate, 5X library)
T25 sequence: VPLNM

[14] = test system: T26, VPMVV (MMP substrate, 5X library)
T26 sequence: VPMVV

[15] = test system: T27, VPVNM (MMP substrate, 5X library)
T27 sequence: VPVNM

[16] = test system: T28, VPVVM (MMP substrate, 5X library)
T28 sequence: VPVVM

[17] = biological target: T29, Canonical (caspase-3 substrate)
T29 chain: QDEVDGGQS
Throughout, for % Conversion: test concentration or dose not given here.

For “catalytic subunit light chain of enteropeptidase”, the Conversion (fraction converted) [1] was 0.15, the decrease in mean fluorescence intensity (SA-PE label) after incubation with enteropeptidase [1] was 20 fold and the “cleavage rate of the CyPet-YPet fusion by fluorimetry, relative to DDDDK” value [2] was “cleaved at a rate 17-fold faster than DDDDK”. The kcat/KM of the synthetic fluorogenic peptide, relative to DDDDK [3] was over 5 fold, the Conversion (fraction converted) (EP 2.2) was 0.69 and the Conversion (fraction converted) (EP 2.5) was 0.84. It also gave a Conversion (fraction converted) (EP 3.6) of 0.86, a Conversion (fraction converted) (EP 4.10) of 0.78 and a Conversion (fraction converted) (EP 4.1) of 0.84. It also gave a Conversion (fraction converted) (EP 4.2) of 0.84, a Conversion (fraction converted) (EP 4.3) of 0.97 and a Conversion (fraction converted) (EP 4.4) of 0.71. For the same molecule, the Conversion (fraction converted) (EP 4.6) was 0.93, the Conversion (fraction converted) (EP 4.7) was 0.91 and the Conversion (fraction converted) (EP 4.8) was 0.87. The Conversion (fraction converted) (EP 4.9) was 0.72 and the “change in fluorescence (SA-PE label) after incubation with enteropeptidase” value [4] was “exhibited minimal change in fluorescence”.

Work on matrix metalloprotease-1 yielded a % Conversion (fraction (head says % Conversion)) [5] of 0.659, a % Conversion (fraction (head says % Conversion)) [6] of 0.428 and a % Conversion (fraction (head says % Conversion)) [7] of 0.699. For the same molecule, the % Conversion (fraction (head says % Conversion)) [8] was 0.504, the % Conversion (fraction (head says % Conversion)) [9] was 0.729 and the % Conversion (fraction (head says % Conversion)) [10] was 0.789. For the same molecule, the % Conversion (fraction (head says % Conversion)) [11] was 0.496, the % Conversion (fraction (head says % Conversion)) [12] was 0.417 and the % Conversion (fraction (head says % Conversion)) [13] was 0.844 and 0.61. For the same molecule, the % Conversion (fraction (head says % Conversion)) [14] was 0.814 and 0.443, the % Conversion (fraction (head says % Conversion)) [15] was 0.76 and the % Conversion (fraction (head says % Conversion)) [16] was 0.366.

B1: caspase-3 (protein)
chain: MENTENSVDSKSIKNLEPKIIHGSESMDSGISLDNSYKMDYPEMGLCIIINNKNFHKSTGMTSRSGTDVDAANLRETFRNLKYEVRNKNDLTREEIVELMRDVSKEDHSKRSSFVCVLLSHGEEGIIFGTNGPVDLKKITNFFRGDRCRSLTGKPKLFIIQACRGTELDCGIETDSGVDDDMACHKIPVEADFLYAYSTAPGYYSWRNSKDGSWFIQSLCAMLKQYADKLEFMHILTRVNRKVATEFESFSFDATFHAKKQIPCIVSMLTKELYFYH
In the case of B1, the Conversion (fraction converted) [17] is reported as 0.95.
